{
  "source": "the RNAGym collection of RNA variant scans (doi:10.1021/acssynbio.7b00057)",
  "parents": {"B1": {"name": "Pistol ribozyme (parent)", "chain": "GGGUCGUUGUUCCAUAAUCGCGUGGAUAUGGCACGCAAGUUUCUACCGGGCACCGUAAAUGUCCGACUGGAGCCGUUCGGGCGGCUAUAAACAGACCUCAGGCCCGAAGCGUGGCGGCACCUGCCGCCGGUGGUAAAAAAGAUCGGAAGAGCACACGUCU"}},
  "data": [
    {"variants_of": "B1", "experiment": "aptazyme ON/OFF ratio, guanine; higher = stronger switching; co-transcriptional cleavage with and without guanine", "values": [
      {"variant": "U7G U10A U11C C12G", "aptazyme ON/OFF ratio": 1.3},
      {"variant": "U7C U8A G9U U10A U11C C13G", "aptazyme ON/OFF ratio": 1.05},
      {"variant": "U7G U8A U11G C12A C13G", "aptazyme ON/OFF ratio": 1.37},
      {"variant": "U7A U8G G9A U10G U11G C12G C13G", "aptazyme ON/OFF ratio": 1.68},
      {"variant": "U7G U8C G9U U11A C12G", "aptazyme ON/OFF ratio": 2.17},
      {"variant": "U7A G9U U10C C12A C13U", "aptazyme ON/OFF ratio": 1.16},
      {"variant": "U8G G9C U10G U11G C12U", "aptazyme ON/OFF ratio": 1.23},
      {"variant": "U7C U8C G9C U11G C12G C13U", "aptazyme ON/OFF ratio": 1.1},
      {"variant": "U7G U8A G9A U11G C12A C13A", "aptazyme ON/OFF ratio": 1.05},
      {"variant": "U7C U8A G9U U10A U11A C12G C13A", "aptazyme ON/OFF ratio": 1.08},
      {"variant": "U7A U8A G9C U10C C13U", "aptazyme ON/OFF ratio": 1.12},
      {"variant": "U7A U8G G9C U11A C12G", "aptazyme ON/OFF ratio": 1.34},
      {"variant": "U7G U8A U10C U11C", "aptazyme ON/OFF ratio": 1.11},
      {"variant": "U7A U8C G9U U10A U11C C12A C13U", "aptazyme ON/OFF ratio": 1.23},
      {"variant": "U7C U8G G9C U10C U11A C13U", "aptazyme ON/OFF ratio": 1.21},
      {"variant": "U7A U8C G9U U10G C12G C13G", "aptazyme ON/OFF ratio": 1.14},
      {"variant": "U7A U8G G9U U10A C12U C13U", "aptazyme ON/OFF ratio": 1.31},
      {"variant": "U7C G9U C12U C13U", "aptazyme ON/OFF ratio": 1.12},
      {"variant": "U7A U8G G9U U10G U11C", "aptazyme ON/OFF ratio": 1.03},
      {"variant": "U8G U10A U11A", "aptazyme ON/OFF ratio": 1.71},
      {"variant": "U8A U10A U11G C13U", "aptazyme ON/OFF ratio": 1.13},
      {"variant": "U8A G9A C12A C13U", "aptazyme ON/OFF ratio": 1.19},
      {"variant": "U7C U8A G9C U10C C12U C13G", "aptazyme ON/OFF ratio": 1.06},
      {"variant": "U7C U8A G9U U10A U11C C12A C13A", "aptazyme ON/OFF ratio": 1.18},
      {"variant": "U7C G9C U10G U11C C12A C13G", "aptazyme ON/OFF ratio": 1.09},
      {"variant": "U7G U10A U11A C12G", "aptazyme ON/OFF ratio": 1.1},
      {"variant": "U7G G9U C12U C13A", "aptazyme ON/OFF ratio": 1.28},
      {"variant": "U7C U8A G9U U10A U11A C12U C13G", "aptazyme ON/OFF ratio": 1.21},
      {"variant": "U8G U10C C12U C13G", "aptazyme ON/OFF ratio": 1.07},
      {"variant": "U7A U8A G9A U11A C12G C13A", "aptazyme ON/OFF ratio": 1.14},
      {"variant": "U7C U8G G9U U11C C12A", "aptazyme ON/OFF ratio": 1.41},
      {"variant": "U7C U8C G9A U11C C12U C13A", "aptazyme ON/OFF ratio": 1.19},
      {"variant": "U7C U8G U11A C12A C13U", "aptazyme ON/OFF ratio": 1.13},
      {"variant": "U7G U8A G9U U10C C13G", "aptazyme ON/OFF ratio": 1.06},
      {"variant": "U7G G9C U10A U11C C12G", "aptazyme ON/OFF ratio": 1.27},
      {"variant": "G9U U10C U11A C12A C13U", "aptazyme ON/OFF ratio": 1.57},
      {"variant": "U7C U8G U10A U11A C12G C13G", "aptazyme ON/OFF ratio": 1.13},
      {"variant": "U8G G9U U10A U11C C12G C13G", "aptazyme ON/OFF ratio": 1.11},
      {"variant": "U8A G9A U10A U11G C12G C13G", "aptazyme ON/OFF ratio": 1.4},
      {"variant": "U7C U8C G9A U10G U11G C12A C13G", "aptazyme ON/OFF ratio": 1.1},
      {"variant": "U7G U8G U10G U11A C12A", "aptazyme ON/OFF ratio": 1.18},
      {"variant": "G9C U10G U11C C12U C13A", "aptazyme ON/OFF ratio": 1.2},
      {"variant": "U7G U8G G9A U10G U11G C12A C13A", "aptazyme ON/OFF ratio": 1.1},
      {"variant": "G9A U11A C12G C13U", "aptazyme ON/OFF ratio": 1.41},
      {"variant": "U7C U8C U10G C13G", "aptazyme ON/OFF ratio": 1.08},
      {"variant": "U7A U8A U11A C12U", "aptazyme ON/OFF ratio": 1.31},
      {"variant": "U7G G9C U10A C13G", "aptazyme ON/OFF ratio": 1.07},
      {"variant": "U7C U8C G9U U10A U11C C13U", "aptazyme ON/OFF ratio": 1.1},
      {"variant": "U7A U10A C12G C13U", "aptazyme ON/OFF ratio": 1.27},
      {"variant": "U7C U8A G9U U10C U11A C12A C13U", "aptazyme ON/OFF ratio": 1.15},
      {"variant": "U7G U8A G9A U10G U11A C12U C13G", "aptazyme ON/OFF ratio": 1.06},
      {"variant": "U7A U8A G9A U10A U11A C12A", "aptazyme ON/OFF ratio": 1.26},
      {"variant": "G9A U10C U11G C12U C13G", "aptazyme ON/OFF ratio": 1.43},
      {"variant": "U7G U8C G9A U10A U11A C12A", "aptazyme ON/OFF ratio": 1.28},
      {"variant": "U7G U10C U11G C12U", "aptazyme ON/OFF ratio": 1.2},
      {"variant": "U8G G9A U10G U11G C12U C13U", "aptazyme ON/OFF ratio": 1.29},
      {"variant": "U7C G9C U10A U11C C12U C13A", "aptazyme ON/OFF ratio": 1.04},
      {"variant": "U7C U8G U10C U11G C12A", "aptazyme ON/OFF ratio": 2.9},
      {"variant": "U7A U8A G9C U10C U11G C12U", "aptazyme ON/OFF ratio": 1.08},
      {"variant": "U7C G9U U11G C12U C13A", "aptazyme ON/OFF ratio": 1.17},
      {"variant": "U7A G9C U10G U11G C13G", "aptazyme ON/OFF ratio": 1.17},
      {"variant": "U8C G9A U10C U11A C12A C13G", "aptazyme ON/OFF ratio": 1.27},
      {"variant": "U7C G9C U10A U11G C12G C13A", "aptazyme ON/OFF ratio": 1.1},
      {"variant": "U7C U8C G9C C12A C13G", "aptazyme ON/OFF ratio": 1.06},
      {"variant": "U7C U8A G9A U10C U11C C12A C13G", "aptazyme ON/OFF ratio": 1.05},
      {"variant": "U7A U8G G9A U10G C13A", "aptazyme ON/OFF ratio": 1.18},
      {"variant": "U7G U8A G9A U10C U11A C12A C13U", "aptazyme ON/OFF ratio": 1.13},
      {"variant": "U7C U8A G9C U11A C12U", "aptazyme ON/OFF ratio": 1.15},
      {"variant": "U8G U10G U11G C13A", "aptazyme ON/OFF ratio": 1.21},
      {"variant": "U7G U8G G9U U10A U11A C12G", "aptazyme ON/OFF ratio": 1.19},
      {"variant": "U7G G9U U10A U11G C12G C13A", "aptazyme ON/OFF ratio": 1.04},
      {"variant": "U7G U11C C13G", "aptazyme ON/OFF ratio": 1.08},
      {"variant": "U7A U8A G9U U10G U11G C13A", "aptazyme ON/OFF ratio": 1.24},
      {"variant": "U7C U8G G9C U10G U11A C12A C13A", "aptazyme ON/OFF ratio": 1.31},
      {"variant": "U7G U8A G9U U10G U11C C12A C13A", "aptazyme ON/OFF ratio": 1.05},
      {"variant": "U7C U8C G9C U10G U11C C12G C13G", "aptazyme ON/OFF ratio": 1.1},
      {"variant": "U7C U10C C13U", "aptazyme ON/OFF ratio": 2.47},
      {"variant": "U7A G9A U10A", "aptazyme ON/OFF ratio": 1.52},
      {"variant": "G9A U10A C12U C13A", "aptazyme ON/OFF ratio": 1.39},
      {"variant": "U7G U8G G9A U11G", "aptazyme ON/OFF ratio": 1.91},
      {"variant": "U7C U8G G9U C12G C13G", "aptazyme ON/OFF ratio": 1.25},
      {"variant": "G9U U10A U11C C12U C13U", "aptazyme ON/OFF ratio": 1.5},
      {"variant": "U7A G9U U10A U11A C12G C13A", "aptazyme ON/OFF ratio": 1.11}
    ]}
  ]
}
